Biological target: retromer endogenous in HeLa cells (detected through its subunit Vps35) (UniProt Q96QK1)
Test: cell-based or functional assay

Chain of retromer endogenous in HeLa cells (detected through its subunit Vps35) (O75436 whole entry): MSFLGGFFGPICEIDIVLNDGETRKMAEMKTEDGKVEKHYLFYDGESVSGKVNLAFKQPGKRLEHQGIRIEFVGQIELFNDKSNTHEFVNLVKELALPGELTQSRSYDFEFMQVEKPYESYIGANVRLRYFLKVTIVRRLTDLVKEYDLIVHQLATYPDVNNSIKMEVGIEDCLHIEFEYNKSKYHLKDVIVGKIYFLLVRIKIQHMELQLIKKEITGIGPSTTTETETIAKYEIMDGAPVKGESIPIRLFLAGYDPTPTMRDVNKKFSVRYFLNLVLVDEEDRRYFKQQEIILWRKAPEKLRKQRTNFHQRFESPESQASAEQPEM

## 3R mutant HPV16 pseudovirus (L2 with three arginines in place of RKRRKR) (from UniProt P03101 1-505)
  Vps35/L1 PLA signal: 75 % reduction

— patent US20210206811A1
